According to US20260167699A1 (Chugai, published 2026):

B1: GpH7-A5/GpH7-B3 variant E269_03V/GpL16-k0 (antibody, human IgG1, kappa)
heavy 1: not shown
heavy 2: not shown
light: DIVMTQSPLSLPVTPGEPASISCQASESLVHSNRNTYLHWYLQKPGQSPQLLIYKVSNRFSGVPDRFSGSGSGTDFTLKISRVEAEDVGVYYCSQNTHVPPTFGQGTKVEIERTVAAPSVFIFPPSDEQLKSGTASVVCLLNNFYPREAKVQWKVDNALQSGNSQESVTEQDSKDSTYSLSSTLTLSKADYEKHKVYACEVTHQGLSSPVTKSFNRGEC
notes: copies: 1 + 1 + 2
B2: GpH7-A5/GpH7-B3 variant E333_05P/GpL16-k0 (antibody, human IgG1, kappa)
heavy 1: not shown
heavy 2: not shown
light: B1 light
notes: copies: 1 + 1 + 2
B3: GpH7-A5/GpH7-B3 variant E269_16H/GpL16-k0 (antibody, human IgG1, kappa)
heavy 1: not shown
heavy 2: not shown
light: B1 light
notes: copies: 1 + 1 + 2
B4: GpH7-A5/GpH7-B3 variant D270_02A/GpL16-k0 (antibody, human IgG1, kappa)
heavy 1: not shown
heavy 2: not shown
light: B1 light
notes: copies: 1 + 1 + 2
B5: GpH7-A5/GpH7-B3 variant D270_06M/GpL16-k0 (antibody, human IgG1, kappa)
heavy 1: not shown
heavy 2: not shown
light: B1 light
notes: copies: 1 + 1 + 2
B6: GpH7-A5/GpH7-B3 variant E333_15Y/GpL16-k0 (antibody, human IgG1, kappa)
heavy 1: not shown
heavy 2: not shown
light: B1 light
notes: copies: 1 + 1 + 2
B7: GpH7-A5/GpH7-B3 variant D270_10E/GpL16-k0 (antibody, human IgG1, kappa)
heavy 1: not shown
heavy 2: not shown
light: B1 light
notes: copies: 1 + 1 + 2
B8: GpH7-A5/GpH7-B3 variant E269_18N/GpL16-k0 (antibody, human IgG1, kappa)
heavy 1: not shown
heavy 2: not shown
light: B1 light
notes: copies: 1 + 1 + 2
B9: GpH7-A5/GpH7-B3 variant E333_09D/GpL16-k0 (antibody, human IgG1, kappa)
heavy 1: not shown
heavy 2: not shown
light: B1 light
notes: copies: 1 + 1 + 2
B10: GpH7-A5/GpH7-B3 variant E333_08L/GpL16-k0 (antibody, human IgG1, kappa)
heavy 1: not shown
heavy 2: not shown
light: B1 light
notes: copies: 1 + 1 + 2
B11: GpH7-A5/GpH7-B3 variant G236_10E/GpL16-k0 (antibody, human IgG1, kappa)
heavy 1: not shown
heavy 2: not shown
light: B1 light
notes: copies: 1 + 1 + 2
B12: GpH7-A5/GpH7-B3 variant E333_06M/GpL16-k0 (antibody, human IgG1, kappa)
heavy 1: not shown
heavy 2: not shown
light: B1 light
notes: copies: 1 + 1 + 2
B13: GpH7-A5/GpH7-B3 variant E269_02A/GpL16-k0 (antibody, human IgG1, kappa)
heavy 1: not shown
heavy 2: not shown
light: B1 light
notes: copies: 1 + 1 + 2
B14: GpH7-A5/GpH7-B3 variant D270_14T/GpL16-k0 (antibody, human IgG1, kappa)
heavy 1: not shown
heavy 2: not shown
light: B1 light
notes: copies: 1 + 1 + 2
B15: GpH7-A5/GpH7-B3 variant D270_19Q/GpL16-k0 (antibody, human IgG1, kappa)
heavy 1: not shown
heavy 2: not shown
light: B1 light
notes: copies: 1 + 1 + 2
B16: GpH7-A5/GpH7-B3 variant E269_09D/GpL16-k0 (antibody, human IgG1, kappa)
heavy 1: not shown
heavy 2: not shown
light: B1 light
notes: copies: 1 + 1 + 2
B17: GpH7-A5/GpH7-B3 variant G236_07I/GpL16-k0 (antibody, human IgG1, kappa)
heavy 1: not shown
heavy 2: not shown
light: B1 light
notes: copies: 1 + 1 + 2
B18: GpH7-A5/GpH7-B3 variant A330_15Y/GpL16-k0 (antibody, human IgG1, kappa)
heavy 1: not shown
heavy 2: not shown
light: B1 light
notes: copies: 1 + 1 + 2
B19: GpH7-A5/GpH7-B3 variant A330_16H/GpL16-k0 (antibody, human IgG1, kappa)
heavy 1: not shown
heavy 2: not shown
light: B1 light
notes: copies: 1 + 1 + 2
B20: GpH7-A5/GpH7-B3 variant E333_04F/GpL16-k0 (antibody, human IgG1, kappa)
heavy 1: not shown
heavy 2: not shown
light: B1 light
notes: copies: 1 + 1 + 2
B21: GpH7-A5/GpH7-B3 variant G236_09D/GpL16-k0 (antibody, human IgG1, kappa)
heavy 1: not shown
heavy 2: not shown
light: B1 light
notes: copies: 1 + 1 + 2
B22: GpH7-A5/GpH7-B3 variant A330_19Q/GpL16-k0 (antibody, human IgG1, kappa)
heavy 1: not shown
heavy 2: not shown
light: B1 light
notes: copies: 1 + 1 + 2
B23: GpH7-A5/GpH7-B3 variant E269_13S/GpL16-k0 (antibody, human IgG1, kappa)
heavy 1: not shown
heavy 2: not shown
light: B1 light
notes: copies: 1 + 1 + 2
B24: GpH7-A5/GpH7-B3 variant E333_07I/GpL16-k0 (antibody, human IgG1, kappa)
heavy 1: not shown
heavy 2: not shown
light: B1 light
notes: copies: 1 + 1 + 2
B25: GpH7-A5/GpH7-B3 variant E333_13S/GpL16-k0 (antibody, human IgG1, kappa)
heavy 1: not shown
heavy 2: not shown
light: B1 light
notes: copies: 1 + 1 + 2
B26: GpH7-A5/GpH7-B3 variant D270_18N/GpL16-k0 (antibody, human IgG1, kappa)
heavy 1: not shown
heavy 2: not shown
light: B1 light
notes: copies: 1 + 1 + 2
B27: GpH7-A5/GpH7-B3 variant E333_12R/GpL16-k0 (antibody, human IgG1, kappa)
heavy 1: not shown
heavy 2: not shown
light: B1 light
notes: copies: 1 + 1 + 2
B28: GpH7-A5/GpH7-B3 variant E269_08L/GpL16-k0 (antibody, human IgG1, kappa)
heavy 1: not shown
heavy 2: not shown
light: B1 light
notes: copies: 1 + 1 + 2
B29: GpH7-A5/GpH7-B3 variant E333_03V/GpL16-k0 (antibody, human IgG1, kappa)
heavy 1: not shown
heavy 2: not shown
light: B1 light
notes: copies: 1 + 1 + 2

biological target: T1, FcγRIIIa (human, UniProt P08637 17-208); assay: SPR (Biacore);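 note: antibody variants captured on an SPR sensor chip, with FcγRIIIa passed over as analyte in HBS-EP+ buffer at 25 °C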
T1 construct: extracellular domain; also called 3a; FcγRIIIa extracellular domain
T1 sequence (P08637 other isoform, or with tags, fused parts or gaps): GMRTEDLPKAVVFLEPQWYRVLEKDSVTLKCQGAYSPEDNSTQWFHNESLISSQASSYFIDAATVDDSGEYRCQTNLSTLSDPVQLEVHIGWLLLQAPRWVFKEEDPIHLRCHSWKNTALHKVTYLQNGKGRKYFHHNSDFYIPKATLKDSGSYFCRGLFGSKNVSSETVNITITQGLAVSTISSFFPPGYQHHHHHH
Experimental: The antibody of interest was analyzed for its interaction with FcγR using a BiaCore™ T100, BiaCore™ A100, or BiaCore™ 4000 surface plasmon resonance system (GE Healthcare Japan Corp.). The running buffer used was HBS-EP+ (GE Healthcare Japan Corp.). The assay temperature was set to 25° C. The sensor chips used were: a chip prepared by immobilizing antigenic peptides onto Series S Sensor Chip CM5 (GE Healthcare Japan Corp.) by the amine coupling method; a chip prepared by immobilizing antigenic peptides biotinylated in advance onto Series S Sensor Chip SA (certified) (GE Healthcare Japan Corp.) through their interaction; a chip prepared by immobilizing protein L (ACTIGEN, BioVision, Inc.) onto Series S Sensor Chip CM5 (GE Healthcare Japan Corp.); and a chip prepared by immobilizing protein A/G (Thermo Fisher Scientific K.K.) onto Series S Sensor Chip CM5 (GE Healthcare Japan Corp.). The antibody of interest was captured onto any of these chips and allowed to interact with FcγR diluted with a running buffer. The antibody captured on the chip was washed off through the reaction of 10 mM glycine-HCl (pH 1.5) to regenerate the chip, which was repetitively used.

Binder	He/Con 3a
B1	56 % of GpH7-A5/GpH7-B3/GpL16-k0
B2	100 % of GpH7-A5/GpH7-B3/GpL16-k0
B3	50.7 % of GpH7-A5/GpH7-B3/GpL16-k0
B4	50.5 % of GpH7-A5/GpH7-B3/GpL16-k0
B5	60 % of GpH7-A5/GpH7-B3/GpL16-k0
B6	101 % of GpH7-A5/GpH7-B3/GpL16-k0
B7	112 % of GpH7-A5/GpH7-B3/GpL16-k0
B8	57.2 % of GpH7-A5/GpH7-B3/GpL16-k0
B9	115 % of GpH7-A5/GpH7-B3/GpL16-k0
B10	102 % of GpH7-A5/GpH7-B3/GpL16-k0
B11	65.8 % of GpH7-A5/GpH7-B3/GpL16-k0
B12	100 % of GpH7-A5/GpH7-B3/GpL16-k0
B13	68 % of GpH7-A5/GpH7-B3/GpL16-k0
B14	55.4 % of GpH7-A5/GpH7-B3/GpL16-k0
B15	74.2 % of GpH7-A5/GpH7-B3/GpL16-k0
B16	106 % of GpH7-A5/GpH7-B3/GpL16-k0
B17	55.6 % of GpH7-A5/GpH7-B3/GpL16-k0
B18	122 % of GpH7-A5/GpH7-B3/GpL16-k0
B19	102 % of GpH7-A5/GpH7-B3/GpL16-k0
B20	104 % of GpH7-A5/GpH7-B3/GpL16-k0
B21	66.2 % of GpH7-A5/GpH7-B3/GpL16-k0
B22	86.3 % of GpH7-A5/GpH7-B3/GpL16-k0
B23	62.1 % of GpH7-A5/GpH7-B3/GpL16-k0
B24	100 % of GpH7-A5/GpH7-B3/GpL16-k0
B25	106 % of GpH7-A5/GpH7-B3/GpL16-k0
B26	51.2 % of GpH7-A5/GpH7-B3/GpL16-k0
B27	92.2 % of GpH7-A5/GpH7-B3/GpL16-k0
B28	51.5 % of GpH7-A5/GpH7-B3/GpL16-k0
B29	106 % of GpH7-A5/GpH7-B3/GpL16-k0
